According to the supplement of paper PMC10567573:

B1: MFF (parent)
chain: DDLTVVDAASLRRQIIKLNRRLQL

Variants of: B1
Assay: protein stability index of a GFP-peptide fusion (GPS, HEK-293T) (PSI 1-6); higher = more stable
Details: c terminus: a fixed tail appended
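Note: lentivirally expressed fusions sorted by FACS into six bins by GFP to DsRed ratio, PSI derived from sequencing read proportions per bin multiplied by bin number.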

| Variant | protein stability index |
| --- | --- |
| DDLTVVDAAALRRQIIKLNRRLQL [S10A] | 1.7 |
| DDLTVVDAALLRRQIIKLNRRLQL [S10L] | 1.24 |
| DDLTVVDAARLRRQIIKLNRRLQL [S10R] | 2.83 |
| DDLTVVDAAVLRRQIIKLNRRLQL [S10V] | 1.64 |
| DDLTVVDAASLRRQIIKLNRRSQL [L22S] | 3.6 |
| DDLTVVDAASLRRQIIKLNRRPQL [L22P] | 3.52 |
| DDLTVVDAASLRRQIIKLNRRCQL [L22C] | 1.91 |
| DDLTVVDAASLRRQIIKLNRRDQL [L22D] | 3.95 |
| DDLTVVDAASLRRQIIKLNRRGQL [L22G] | 3.13 |
| DDLTVVDAASLRRQIIKLSRRLQL [N19S] | 2.38 |
| DDLTVVDAASLRRQIIKLMRRLQL [N19M] | 1.74 |
| DDLTVVDAASLRRQIIKLHRRLQL [N19H] | 1.75 |
| DDLTVVDAASLRRQIIKLERRLQL [N19E] | 3 |
| DDLTVVDAASLRRQIIKLFRRLQL [N19F] | 2.16 |
| DDLTVVDAASLRRQIIKLIRRLQL [N19I] | 2.02 |
| DDLTVVDAISLRRQIIKLNRRLQL [A9I] | 2.79 |
| DDLTVVDAWSLRRQIIKLNRRLQL [A9W] | 1.84 |
| DDLTVVDACSLRRQIIKLNRRLQL [A9C] | 2.03 |
| DDLTVVDAASLRRQITKLNRRLQL [I16T] | 1.92 |
| DDLTVVDAASLRRQINKLNRRLQL [I16N] | 2.8 |
| DDLTVVDAASLRRQIIKLNWRLQL [R20W] | 1.37 |
| DDLTVVDAASLRRQIIKLNDRLQL [R20D] | 2.82 |
| DDLTVVDAASLRRQIIKLNSRLQL [R20S] | 1.96 |
| DDLTVVDAASLRRQIIKLNRVLQL [R21V] | 1.79 |

| Variant | protein stability index |
| --- | --- |
| DDLTVVDAASLRRQIIKLNRELQL [R21E] | 1.46 |
| DDLTVVDAASLRRQIIKLNRMLQL [R21M] | 1.14 |
| DDLTVVDAASLRRQIIKLNRQLQL [R21Q] | 1.84 |
| DDLTVVDAASLRRQIIKLNRRLML [Q23M] | 2.43 |
| DDLTVVDAASLRRQIIKLNRRLTL [Q23T] | 2.08 |
| DDLTVVDAASLRRQIIKLNRRLPL [Q23P] | 2.62 |
| DDLTVVDAASLRRQIIKLNRRLEL [Q23E] | 2.5 |
| DDLTVVDAASLRRQIIKLNRRLCL [Q23C] | 1.91 |
| DDVTVVDAASLRRQIIKLNRRLQL [L3V] | 2.8 |
| DDTTVVDAASLRRQIIKLNRRLQL [L3T] | 2.2 |
| DDLTVVMAASLRRQIIKLNRRLQL [D7M] | 2.19 |
| DDLTVVNAASLRRQIIKLNRRLQL [D7N] | 1.89 |
| DDLTVVHAASLRRQIIKLNRRLQL [D7H] | 3.12 |
| DDLTVVDAASLRRQIIKTNRRLQL [L18T] | 2.89 |
| DDLTVVDAASLRRQIIKPNRRLQL [L18P] | 3.42 |
| DDLTVVDAASLRRQIIKNNRRLQL [L18N] | 3.39 |
| DDLTVVDAASLRRQIIKANRRLQL [L18A] | 1.86 |
| DDLTVVDAASLRRQIIKKNRRLQL [L18K] | 3.31 |
| DDLTVVDAASLGRQIIKLNRRLQL [R12G] | 1.85 |
| DDLTVVDAASLARQIIKLNRRLQL [R12A] | 2.07 |
| DDLTVVDAASLHRQIIKLNRRLQL [R12H] | 2.58 |
| DDLTVVDAASLKRQIIKLNRRLQL [R12K] | 2.01 |
| DDLTVVDAASLSRQIIKLNRRLQL [R12S] | 2.1 |
| DDLTVVDAASLYRQIIKLNRRLQL [R12Y] | 1.9 |

| Variant | protein stability index |
| --- | --- |
| DDLTVVDAASLVRQIIKLNRRLQL [R12V] | 2.06 |
| DDLTVVDAASLRRLIIKLNRRLQL [Q14L] | 2.45 |
| DDLTVVDAASLRRKIIKLNRRLQL [Q14K] | 2.23 |
| DDLTVVDAASLRRAIIKLNRRLQL [Q14A] | 1.82 |
| DDLTVVDAASLRRRIIKLNRRLQL [Q14R] | 2.58 |
| DDLTVVDAASLRRTIIKLNRRLQL [Q14T] | 3.2 |
| DDLTPVDAASLRRQIIKLNRRLQL [V5P] | 2.42 |
| DDLTHVDAASLRRQIIKLNRRLQL [V5H] | 2.69 |
| DDLTFVDAASLRRQIIKLNRRLQL [V5F] | 1.72 |
| DDLTYVDAASLRRQIIKLNRRLQL [V5Y] | 2.17 |
| DDLTRVDAASLRRQIIKLNRRLQL [V5R] | 1.7 |
| DDLTVVDAASLRRQTIKLNRRLQL [I15T] | 2.94 |
| DDLTVVDAASLRRQQIKLNRRLQL [I15Q] | 3.66 |
| DDLTVVDAASLRRQFIKLNRRLQL [I15F] | 2 |
| DDLTVVDAASLRRQYIKLNRRLQL [I15Y] | 2.57 |
| DLLTVVDAASLRRQIIKLNRRLQL [D2L] | 1.24 |
| DKLTVVDAASLRRQIIKLNRRLQL [D2K] | 2.3 |
| DMLTVVDAASLRRQIIKLNRRLQL [D2M] | 2.09 |
| DPLTVVDAASLRRQIIKLNRRLQL [D2P] | 2.45 |
| DFLTVVDAASLRRQIIKLNRRLQL [D2F] | 2.48 |
| DDLTVVDAASLRRQIICLNRRLQL [K17C] | 2.44 |
| DDLTVVDAASLRRQIIKLNRRLQV [L24V] | 3.01 |
| DDLTVVDAASLRRQIIKLNRRLQQ [L24Q] | 2.89 |
| DDLMVVDAASLRRQIIKLNRRLQL [T4M] | 2.24 |

| Variant | protein stability index |
| --- | --- |
| DDLEVVDAASLRRQIIKLNRRLQL [T4E] | 2.21 |
| DDLNVVDAASLRRQIIKLNRRLQL [T4N] | 2.3 |
| DDLTVVDAASLREQIIKLNRRLQL [R13E] | 2.42 |
| DDLTVVDAASLRSQIIKLNRRLQL [R13S] | 2.39 |
| DDLTVVDAASLRPQIIKLNRRLQL [R13P] | 2.56 |
| DDLTVVDAASLRHQIIKLNRRLQL [R13H] | 1.95 |
| DDLTVVDAASLRQQIIKLNRRLQL [R13Q] | 2.06 |
| DDLTVVDAASLRFQIIKLNRRLQL [R13F] | 1.69 |
| DDLTVVDAASLRNQIIKLNRRLQL [R13N] | 2.21 |
| WDLTVVDAASLRRQIIKLNRRLQL [D1W] | 1.88 |
| YDLTVVDAASLRRQIIKLNRRLQL [D1Y] | 2.81 |
| VDLTVVDAASLRRQIIKLNRRLQL [D1V] | 2.39 |
| TDLTVVDAASLRRQIIKLNRRLQL [D1T] | 1.78 |
| DDLTVWDAASLRRQIIKLNRRLQL [V6W] | 2.4 |
| DDLTVTDAASLRRQIIKLNRRLQL [V6T] | 2.34 |
| DDLTVIDAASLRRQIIKLNRRLQL [V6I] | 1.55 |
| DDLTVLDAASLRRQIIKLNRRLQL [V6L] | 2.37 |
| DDLTVVDAASTRRQIIKLNRRLQL [L11T] | 3.39 |
| DDLTVVDAASYRRQIIKLNRRLQL [L11Y] | 2.82 |
| DDLTVVDWASLRRQIIKLNRRLQL [A8W] | 2.17 |
| DDLTVVDVASLRRQIIKLNRRLQL [A8V] | 1.9 |
| DDLTVVDCASLRRQIIKLNRRLQL [A8C] | 1.93 |
